Measurements taken from patent publication US20140023585A1, “177 LUTETIUM-LABELED BOMBESIN ANALOGS FOR RADIOTHERAPY” (UNIVERSITATSSPITAL BASEL, priority 2010, published 2014).

Experiments:
PC-3 tumors [1] = assay: in vivo; conditions: i.v.
Method: Biodistribution was investigated in NMRI nude mice bearing subcutaneous PC-3 tumors in the right hind limb at different time-points. Body weight of the male mice was approx. 30 g, 3 animals were investigated per time-point. After injecting an intravenous dose into the tail vein, mice were sacrificed at indicated time points and dissected organs were analyzed by radioactive counting. An administration dose of 100 μL was applied per animal with a mean activity of 86 kBq.
At indicated time points urine and feces were quantitatively collected. At the same time points, animals were sacrificed and exsanguinations under isoflurane anesthesia and the following organs and tissues were removed for measurement of [^177Lu] using the gamma-counter: spleen, liver, gallbladder, kidneys, lung, femur, heart, brain, fat, thyroid, muscle, skin, blood, tail, stomach (without content), prostate, intestine (with content), pancreas, adrenals, and the remaining body (designated as carcass).
Whole organs and tissues or aliquots were weighted and measured in a gamma-counter for radioactivity. In order to get the amount of total radioactivity administered in each animal (=100%) 3 aliquots (100 μL each) of the injected solution were always measured in parallel. The results of the biodistribution and excretion are reported as percent of injected dose per gram of tissue (% ID/g) and percent of injected dose per organ (% ID), respectively. All data are given as mean value±standard deviation, which were calculated by using all animals per time and sample.

PC-3 tumors [2] = assay: Dosimetry by MIRD methodology from biodistribution data; type: in vivo; conditions: mice
Source text: Doses of 150-200 Gy in the tumor could be achieved considering a maximum activity of 450 MBq to be injected per animal. Kidneys were not critical instead it was the pancreas to be the dose limiting organ. (In contrast to rodent pancreas, human pancreas expresses only very low amounts of the GRPr.)

PC-3 tumors [3] = assay: Radionuclide therapy study with repeated injections; type: in vivo, nude mice; conditions: end of the study, compared to controls
Method: (§1) A first therapy study was conducted on 25 nude mice (15-20 g) subcutaneously implanted with PC-3 ([…]). For toxicity study the same therapy protocol was applied to 25 CD1 mice. Thirteen days after implantation the mice were randomly divided in 5 groups and treated as described below: • 1. […] 200 pmol of ^natcompound 2 • 5. PBS
According to the protocol agreed upon, three injections per week (days 0, 2, 4) were done and the procedure was repeated (days 14, 16, 18) after one pause week. Based on the biodistribution data of compound 3 with ^111In we observed that injections after 48 h would maintain stable the uptake in the tumor. The pause week is, in our opinion, important for the safety of the animals. The mice were periodically monitored by measuring tumor size and body mass. Animals with loss of >20% of their original weight or with tumor size >20 mm in diameter were sacrificed. Tumor sizes were determined by caliper measurements in two dimensions and tumor volumes were calculated assuming an elliptical shape.

[4] = Toxicity study, same therapy protocol in CD1 mice; type: in vivo
Method: as §1

CC(C)C[C@H](NC(=O)C[C@H](O)[C@H](CC(C)C)NC(=O)[C@H](Cc1c[nH]cn1)NC(=O)CNC(=O)[C@@H](NC(=O)[C@H](C)NC(=O)[C@H](Cc1c[nH]c2ccccc12)NC(=O)[C@H](CCC(N)=O)NC(=O)[C@@H](Cc1ccccc1)NC(=O)CN1CCC(NC(=O)CN2CCN(CC(=O)O)CCN(CC(=O)O)CCN(CC(=O)O)CC2)CC1)C(C)C)C(N)=O [compound 2, [^177Lu]-DOTA-4-amino-1-carboxymethylpiperidine-D-Phe-Gln-Trp-Ala-Val-Gly-His-Sta-Leu-NH2, metal not drawn]
% ID Gallbladder (PC-3 tumors [1]; 1.0 h p.a.): 0.000 % ID
% ID/g Kidney (PC-3 tumors [1]; 1.0 h p.a.): 1.72 (±0.45) % ID/g
% ID/g Tumor (PC-3 tumors [1]; 1.0 h p.a.): 5.60 (±1.66) % ID/g
% ID Gallbladder (PC-3 tumors [1]; 4.0 h p.a.): 0.000 % ID
% ID/g Kidney (PC-3 tumors [1]; 24.0 h p.a.): 0.57 (±0.21) % ID/g
% ID/g Liver (PC-3 tumors [1]; 24.0 h p.a.): 0.05 (±0.01) % ID/g
% ID/g Tumor (PC-3 tumors [1]; 24.0 h p.a.): 6.06 (±1.53) % ID/g
dose limiting organ (PC-3 tumors [2]): pancreas
histopathological changes (PC-3 tumors [3]): no compound (radio-peptide) related histopathological changes
survival and health of CD1 animals [4]: alive and look healthy
body weight of CD1 animals ([4]; stabilized after 5-6 months): increased
